Test results: patent US20030219427A1, “TPL-2/COT kinase and methods of use” (priority 1998, published 2003)
* marks the point of attachment. Biotin = O=C1N[C@H]2[C@H](CS[C@H]2CCCCC(=O)*)N1

Columns and labels:
[1] = target: endogenous NF-κB1 p105 (HeLa, Jurkat and 293 cells) (UniProt P19838); test: cell-based or functional assay
HA-p105(369-969) = target: T1, HA-p105(369-969) (Homo sapiens (Human), UniProt P19838 368-968); test: co-expression in HEK293 cells, isolation of the complex from lysates
T1 construct: also called p105?N
T1 sequence: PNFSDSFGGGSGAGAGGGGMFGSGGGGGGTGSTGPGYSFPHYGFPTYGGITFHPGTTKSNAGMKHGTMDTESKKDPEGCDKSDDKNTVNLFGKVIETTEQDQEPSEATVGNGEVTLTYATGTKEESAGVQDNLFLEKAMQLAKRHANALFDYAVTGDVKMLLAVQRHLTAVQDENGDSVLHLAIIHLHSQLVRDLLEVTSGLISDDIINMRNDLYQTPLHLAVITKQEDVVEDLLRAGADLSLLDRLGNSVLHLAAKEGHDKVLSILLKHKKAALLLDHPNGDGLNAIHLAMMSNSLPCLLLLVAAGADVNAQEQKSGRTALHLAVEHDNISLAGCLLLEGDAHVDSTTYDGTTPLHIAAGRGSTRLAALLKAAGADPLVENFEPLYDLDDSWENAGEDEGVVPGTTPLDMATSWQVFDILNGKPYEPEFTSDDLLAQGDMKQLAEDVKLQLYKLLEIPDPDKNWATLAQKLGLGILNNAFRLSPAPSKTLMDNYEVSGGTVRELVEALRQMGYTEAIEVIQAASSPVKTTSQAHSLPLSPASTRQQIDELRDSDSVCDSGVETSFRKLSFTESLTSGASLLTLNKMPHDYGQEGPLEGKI

[2] = target: T2, Myc-TPL-2ΔC MEK kinase activity (Rattus norvegicus, UniProt Q63562); test: In vitro MEK kinase assay with GST-MEK1(K207A) substrate, Myc-TPL-2ΔC; assay type: biochemical
T2 construct: TPL-2ΔC which lacks the C-terminal 70 amino acids; made in house; host or cells: HEK 293 cells, transient transfection, anti-Myc immunoprecipitation
Experimental: Myc-TPL-2 or Myc-TPL-2ΔC were isolated by immunoprecipitation from lysates of transiently transfected 293 cells, as described above. immunoprecipitates were washed four times in Buffer A, followed by two washes in kinase buffer (50 mM Tris-pH7.5, 150 mM NaCl, 5 mM β-glycerophosphate, 2 mM dithiothreitol, 0.1 mM sodium vanadate, 10 mM MgCl2, 1 mM EGTA, 0.01% Brij35). Beads were then resuspended in 50μl of kinase buffer plus the indicated amounts of recombinant p105 protein and incubated at 4° C. for 30 min. […] The supernatant was removed, mixed with an equal volume of 2×sample buffer, Western blotted after 8%-acrylamide SDS-PAGE and probed with anti-phospho-MEK-½ antibody. Immunoprecipitated Myc-TPL-2 or Myc-TPL-2ΔC was eluted with Laemlli sample buffer from the remaining anti-Myc mAb beads and quantified by Western blotting.
(5.6.c) The inhibition of TPL-2 MEK kinase activity by p 105498-969 may be more efficient than the isolated p105 DD as the former protein contains a binding site for the TPL-2 C-terminus. It was, therefore, interesting to determine the sensitivity of TPL2ΔC catalytic activity to inhibition by p105. The specific activity of Myc-TPL-2ΔC, isolated by immunoprecipitation from transfected 293 cell lysates, was modestly (approximately 2-3 fold) increased relative to wild type Myc-TPL-2.

[3] = target: T3, Myc-Raf1(CAAX) MEK kinase activity (Homo sapiens, UniProt P04049); test: In vitro MEK kinase assay, activated Raf1; assay type: biochemical
T3 construct: CAAX membrane-targeting motif (C); made in house

Myc-TPL-2 = Myc-TPL-2 (Homo sapiens (Human), UniProt P41279 1-467); test: cell-based or functional assay
Myc-TPL-2ΔC = Myc-TPL-2ΔC (Homo sapiens (Human), UniProt P41279 1-397); test: cell-based or functional assay
[4] = target: T4, endogenous p105 (mouse 3T3 fibroblasts) (mouse, UniProt P25799 1-971); test: anti-TPL-2 immunoprecipitation from lysates of wild type mouse 3T3 fibroblasts, Western blot
T4 sequence (looked up): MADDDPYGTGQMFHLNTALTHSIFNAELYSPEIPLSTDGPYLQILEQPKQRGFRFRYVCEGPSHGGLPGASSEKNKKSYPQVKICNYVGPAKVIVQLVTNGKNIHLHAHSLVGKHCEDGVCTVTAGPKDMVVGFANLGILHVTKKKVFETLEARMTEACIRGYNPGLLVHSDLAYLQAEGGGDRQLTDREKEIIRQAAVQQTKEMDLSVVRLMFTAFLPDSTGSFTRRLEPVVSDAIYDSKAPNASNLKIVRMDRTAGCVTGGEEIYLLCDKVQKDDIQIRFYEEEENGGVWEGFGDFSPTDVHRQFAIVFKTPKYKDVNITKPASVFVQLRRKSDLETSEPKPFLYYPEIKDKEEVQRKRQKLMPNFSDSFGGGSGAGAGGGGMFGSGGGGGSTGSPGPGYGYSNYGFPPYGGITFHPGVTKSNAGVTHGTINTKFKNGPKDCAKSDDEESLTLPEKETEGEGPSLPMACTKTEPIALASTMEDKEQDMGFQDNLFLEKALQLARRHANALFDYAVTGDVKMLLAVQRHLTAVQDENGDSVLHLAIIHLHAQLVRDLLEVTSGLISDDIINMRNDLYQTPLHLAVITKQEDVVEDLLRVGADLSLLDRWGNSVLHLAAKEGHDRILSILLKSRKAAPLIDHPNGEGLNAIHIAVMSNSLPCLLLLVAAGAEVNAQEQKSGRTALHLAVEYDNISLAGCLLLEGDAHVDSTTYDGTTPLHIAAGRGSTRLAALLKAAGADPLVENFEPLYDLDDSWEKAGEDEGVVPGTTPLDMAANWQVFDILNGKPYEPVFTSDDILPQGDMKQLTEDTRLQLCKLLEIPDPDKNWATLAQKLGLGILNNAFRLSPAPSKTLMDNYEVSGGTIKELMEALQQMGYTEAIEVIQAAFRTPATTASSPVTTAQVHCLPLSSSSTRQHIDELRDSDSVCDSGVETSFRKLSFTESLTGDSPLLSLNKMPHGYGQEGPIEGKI
Experimental: (5.5.c) To determine whether p105 regulates the steady-state levels of endogenous TPL-2 protein, cell lysates were prepared from 3T3 fibroblasts derived from wild type and NF-κB1-deficient mice. TPL-2 was readily detected by Western blotting of anti-TPL-2 immunoprecipitates from wild type fibroblasts and was associated with endogenous p105.

[5] = target: T5, TPL-2 C-terminus (TPL-2398-467 peptide) (Rattus norvegicus, UniProt Q63562); test: Surface plasmon resonance (BIAcore) binding to immobilized TPL-2 C-terminal peptide; details: biotinylated TPL-2398-467 on Streptavidin sensor surface, 25° C.
T5 construct: a synthetic peptide corresponding to the C-terminus of TPL-2 (residues 398-467); made in house; host or cells: chemical peptide synthesis
Experimental: (§1) Interaction between the TPL-2 C-terminus and recombinant p105 proteins was measured by surface plasmon resonance using the BIAcore system (BIAcore AB, Uppsala, Sweden; (Szabo, A., et al. (1995) Curr. Opin. Struct. biol. 5: 699-705)). The C-terminal 70 amino acids of TPL-2 (TPL-2398-467) were synthesised as a biotinylated peptide (conjugated to the equivalent of Cys398 of full length TPL-2) and immobilized on a Streptavidin-coated sensor surface (Sensorchip SA, BIAcore AB). Recombinant p105 proteins were then injected at different concentrations and resonance signals monitored. Dissociation at 25° C. was measured by flushing the TPL-2/p105 complexes with HBS-P buffer (10 MM HEPES-pH7.4, 150 mM NaCl, 0.005% (v/v) polysorbate 20; BIAcore AB). Data were evaluated using BIAevaluation software, version 3.0.2.
(5.3.b) In order to obtain corroborating evidence for the TPL-2 C-terminus binding site on p105, surface plasmon resonance experiments were carried out using the panel of recombinant p105 proteins including p105 1-969, p105 498-969, p105 498-806, p105 497-782 and p105 541-802.

recombinant p105 541-802 = target: T6, recombinant p105 541-802 (Homo sapiens (Human), UniProt P19838 540-801); test: surface plasmon resonance (BIAcore), biotinylated peptide on streptavidin chip
T6 construct: Made in E. coli as a GST fusion and cleaved from GST
T6 sequence: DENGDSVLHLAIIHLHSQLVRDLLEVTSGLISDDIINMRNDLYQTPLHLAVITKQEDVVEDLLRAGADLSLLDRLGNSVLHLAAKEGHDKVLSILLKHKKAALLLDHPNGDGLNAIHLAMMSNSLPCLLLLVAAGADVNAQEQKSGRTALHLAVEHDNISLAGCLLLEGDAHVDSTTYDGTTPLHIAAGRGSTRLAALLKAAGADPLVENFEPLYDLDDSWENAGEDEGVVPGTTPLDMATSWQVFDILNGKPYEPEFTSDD
Experimental: as §1, with “(TPL-2₃₉₈₋₄₆₇)” for “(TPL-2398-467)”

T2 sequence (Q63562 1-397, stated change not applied): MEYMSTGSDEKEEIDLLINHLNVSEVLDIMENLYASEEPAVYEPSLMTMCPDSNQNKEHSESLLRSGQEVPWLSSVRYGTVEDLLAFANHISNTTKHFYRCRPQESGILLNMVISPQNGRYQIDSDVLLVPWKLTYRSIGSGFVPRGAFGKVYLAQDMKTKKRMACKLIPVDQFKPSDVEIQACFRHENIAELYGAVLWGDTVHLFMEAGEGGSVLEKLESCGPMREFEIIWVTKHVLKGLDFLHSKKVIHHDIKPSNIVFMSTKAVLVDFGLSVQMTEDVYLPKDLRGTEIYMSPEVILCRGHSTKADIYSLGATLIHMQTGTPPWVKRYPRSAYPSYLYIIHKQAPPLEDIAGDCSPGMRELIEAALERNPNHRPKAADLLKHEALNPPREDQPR
Sequence of Myc-TPL-2ΔC (P41279 1-397, stated change not applied): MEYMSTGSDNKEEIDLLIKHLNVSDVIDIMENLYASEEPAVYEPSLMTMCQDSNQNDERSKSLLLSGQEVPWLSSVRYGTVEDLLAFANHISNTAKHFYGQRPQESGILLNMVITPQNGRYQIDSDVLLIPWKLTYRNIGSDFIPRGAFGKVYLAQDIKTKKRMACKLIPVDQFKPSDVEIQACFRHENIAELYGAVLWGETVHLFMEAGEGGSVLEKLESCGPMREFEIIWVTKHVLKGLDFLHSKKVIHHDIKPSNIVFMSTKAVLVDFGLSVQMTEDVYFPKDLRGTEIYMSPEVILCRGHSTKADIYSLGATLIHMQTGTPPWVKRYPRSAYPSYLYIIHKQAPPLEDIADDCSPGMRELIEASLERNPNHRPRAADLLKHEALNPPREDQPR
T5 sequence (Q63562 398-467): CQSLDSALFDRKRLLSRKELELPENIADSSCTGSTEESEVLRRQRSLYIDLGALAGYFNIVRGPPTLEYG

## TPL-2ΔC (from UniProt P41279 1-397)
[1]
  NF-κB-dependent luciferase reporter gene in Jurkat T cells: 12 fold

B1: COT(131-411) (enzyme, not shown: small tags and cut ends)
chain: PWKLTYRNIGSDFIPRGAFGKVYLAQDIKTKKRMACKLIPVDQFKPSDVEIQACFRHENIAELYGAVLWGETVHLFMEAGEGGSVLEKLESCGPMREFEIIWVTKHVLKGLDFLHSKKVIHHDIKPSNIVFMSTKAVLVDFGLSVQMTEDVYFPKDLRGTEIYMSPEVILCRGHSTKADIYSLGATLIHMQTGTPPWVKRYPRSAYPSYLYIIHKQAPPLEDIADDCSPGMRELIEASLERNPNHRPRAADLLKHEALNPPREDQPRCTSLDSALLERKRL
notes: also called TPL-2 (131-411)
HA-p105(369-969)
  binding result: binds

B2: TPL-2398-467 peptide: synthetic peptide corresponding to the C-terminal 70 amino acids of TPL-2 (peptide)
peptide: CTSLDSALLERKRLLSRKELELPENIADSSCTGSTEESEMLKRQRSLYIDLGALAGYFNLVRGPPTLEYG
[2]
  effect on TPL-2ΔC in vitro MEK kinase activity: not found to affect

B3: recombinant p105498-969 protein (other)
chain: QDNLFLEKAMQLAKRHANALFDYAVTGDVKMLLAVQRHLTAVQDENGDSVLHLAIIHLHSQLVRDLLEVTSGLISDDIINMRNDLYQTPLHLAVITKQEDVVEDLLRAGADLSLLDRLGNSVLHLAAKEGHDKVLSILLKHKKAALLLDHPNGDGLNAIHLAMMSNSLPCLLLLVAAGADVNAQEQKSGRTALHLAVEHDNISLAGCLLLEGDAHVDSTTYDGTTPLHIAAGRGSTRLAALLKAAGADPLVENFEPLYDLDDSWENAGEDEGVVPGTTPLDMATSWQVFDILNGKPYEPEFTSDDLLAQGDMKQLAEDVKLQLYKLLEIPDPDKNWATLAQKLGLGILNNAFRLSPAPSKTLMDNYEVSGGTVRELVEALRQMGYTEAIEVIQAASSPVKTTSQAHSLPLSPASTRQQIDELRDSDSVCDSGVETSFRKLSFTESLTSGASLLTLNKMPHDYGQEGPLEGKI
[3]
  effect on Myc-Raf1(CAAX) MEK kinase activity: unaffected
Myc-TPL-2
  IC50 of inhibition of TPL-2 MEK kinase activity (phosphorylation of GST-MEK1(K207A) in vitro): 90 nM
Myc-TPL-2ΔC
  IC50 of inhibition of TPL-2ΔC MEK kinase activity in vitro: 1000 nM

B4: endogenous TPL-2 (mouse 3T3 fibroblasts) (enzyme, UniProt Q07174 1-467, looked up)
chain: MEYMSTGSDEKEEIDLLIKHLNVSEVIDIMENLYASEEPGVYEPSLMTMYPDSNQNEERSESLLRSGQEVPWLSSVRYGTVEDLLAFANHVSNMTKHFYGRRPQECGILLNMVISPQNGRYQIDSDVLLVPWKLTYRNIGSGFVPRGAFGKVYLAQDMKTKKRMACKLIPIDQFKPSDVEIQACFRHENIAELYGAVLWGDTVHLFMEAGEGGSVLEKLESCGPMREFEIIWVTKHILKGLDFLHSKKVIHHDIKPSNIVFMSTKAVLVDFGLSVKMTEDVYLPKDLRGTEIYMSPEVILCRGHSTKADIYSLGATLIHMQTGTPPWVKRYPRSAYPSYLYIIHKQAPPLEDIAGDCSPGMRELIEAALERNPNHRPKAADLLKHEALNPPREDQPRCQSLDSALFERKRLLSRKELQLPENIADSSCTGSTEESEVLRRQRSLYIDLGALAGYFNIVRGPPTLEYG
[4]
  binding result: binds

B5: p105541-802: recombinant p105 protein, residues 541-802 (protein)
chain: T6 sequence
[5]
  binding to the TPL-2 peptide (affinity constants): did not detectably bind

B6: biotinylated TPL-2398-467 peptide (peptide)
peptide: C(Biotin)TSLDSALLERKRLLSRKELELPENIADSSCTGSTEESEMLKRQRSLYIDLGALAGYFNLVRGPPTLEYG
notes: Immobilized on a streptavidin-coated BIAcore sensor surface; also called TPL-2 peptide; TPL-2 C-terminus
Recombinant p105 541-802
  binding result: no binding
